The values that follow come from PMC3887192.

In general, Kd refers to a measure of binding affinity in units of concentration. The low end stands for a tighter complex, the high end for a looser complex.

The target in this test is HLA A*0201-…. Description: SPR. As to conditions: 25 °C.
On to “MEL5 TCR MEL5β3 (CDR2 mutations, not printed)”, for which the Kd was 850 nM, the dG is -7.72 kcal/mol-1 and the other: Half-life is 4.2 s.
For “MEL5 TCR MEL5β6 (CDR2&3 mutations, not printed)”, in that order: 210 nM, -8.49 kcal/mol-1 and 11.4 s.
For “MEL5 TCR MEL5β5 (CDR2&3 mutations, not printed)”, in that order: 2100 nM, -7.22 kcal/mol-1 and 1.2 s.
In turn, “ILA1 TCR ILA1α1β2 (CDR2&3 mutations, not printed)” gave a Kd of 3.1 nM.
As for “MEL5 TCR MEL5β1 (CDR2 mutations, not printed)”, the Kd was found to be 1800 nM, the dG is -7.31 kcal/mol-1 and the other: Half-life was determined as 2.4 s.
“MEL5 TCR MEL5β7 (CDR2&3 mutations, not printed)”: the Kd was determined as 540 nM, the dG was -7.97 kcal/mol-1 and the other: Half-life stood at 27.6 s.
For “ILA1 TCR ILA1α1 (CDR3 mutations, not printed)”, in that order: 26 nM, -9.65 kcal/mol-1 and 1100 s.
For “MEL5 TCR MEL5β4 (CDR2 mutations, not printed)”, in that order: 1400 nM, -7.45 kcal/mol-1 and 3 s.
Turning to “ILA1 TCR ILA1α1β1 (CDR2&3 mutations, not printed)”, the Kd is 2 nM.
As for “MEL5 TCR MEL5β8 (CDR2&3 mutations, not printed)”, the dissociation constant (Kd) came to 170 nM, the dG is -8.61 kcal/mol-1 and the other: Half-life is 49.2 s.
“ILA1 TCR ILA1β1 (CDR2 mutations, not printed)” came in with a Kd of 9.5 nM.
For the substance “MEL5 TCR MEL5β2 (CDR2 mutations, not printed)”, the Kd amounted to 1300 nM, the dG was -7.49 kcal/mol-1 and the other: Half-life came to 2.4 s.
Take “ILA1 TCR ILA1β2 (CDR2 mutations, not printed)”: the Kd was 9.1 nM.
